The values that follow come from US20170152290A1.

Assay [1] deals with LRP1 receptor (Low Density Lipoprotein Receptor-Related Protein) on Vero cells. The assay is described as follows: cell-based or functional assay.
For assay [2], the target named is T1, sLRP1-CIV (cluster IV of LRP1 fused to the constant region of a human IgG1) (human). In words: SPR (Biacore X), sLRP1-CIV immobilised on CM5 chip, peptide at 20 µM; RU at 270 s.
Assay [3] has as its target T1, sLRP1-CIV (cluster IV of LRP1 fused to …). In words: SPR (Biacore X), sLRP1-CIV immobilised on CM5 chip, peptide at 20 µM; RU observed at 160 s.

Some results are limits rather than exact numbers.

Molecule SSNIVIGIGDKALKINWSKKK (modifications not checked) [peptide HDIII3CLC-] displayed an Antiviral activity in Vero cells, IC50 (plaque reduction, DENV2) in assay [1] of more than 100 µM.
In turn, CIEVNVTINGKKYNWFICKKK (modifications not checked) [beta hairpin peptide PHB8] showed an Antiviral activity in Vero cells, IC50 (plaque reduction, DENV2) in assay [1] of 15 µM.
In assay [1], FWNWKWEKNKWTWNVEGGKKK (modifications not checked) [beta hairpin peptide PHB5] displayed an Antiviral activity in Vero cells, IC50 (plaque reduction, DENV2) of 17 µM. Besides, the RU (at 270 s) in assay [2] was determined as 175 RU.
CIEVYVTINGKKYNWFICKKK (modifications not checked) [beta hairpin peptide PHB9]: the Antiviral activity in Vero cells, IC50 (plaque reduction, DENV2) in assay [1] was 7 µM. In assay [2], this molecule yielded an RU (at 270 s) of 1080 RU.
In assay [1], CSNIVIGIGDKALAINWCKKK (modifications not checked) [peptide HDIII3CLK-] displayed an Antiviral activity in Vero cells, IC50 (plaque reduction, DENV2) of more than 100 µM. The molecule further yielded an RU (at 160 s) in assay [3] of 276 RU.
Consider FWNWKWEPNKWTWNVEGGKKK (modifications not checked) [beta hairpin peptide PHB6], for which the Antiviral activity in Vero cells, IC50 (plaque reduction, DENV2) in assay [1] came out at 33 µM.
The molecule CVYWTRPKWKVNWCKKK (modifications not checked) [beta hairpin peptide PHB2] returned an Antiviral activity in Vero cells, IC50 (plaque reduction, DENV2) in assay [1] of 12 µM. This molecule also returned an RU (at 270 s) in assay [2] of 861 RU.
Consider CSNIVIGIGDKALKINWCKKK (modifications not checked) [peptide HDIII3CL2], for which the Antiviral activity in Vero cells, IC50 (plaque reduction, DENV2) in assay [1] was 20 µM. In assay [3], the RU (at 160 s) amounted to 1010 RU.
In assay [1], CSNIVIGIGDKALKINACKKK (modifications not checked) [peptide HDIII3CLW-] had an Antiviral activity in Vero cells, IC50 (plaque reduction, DENV2) of more than 100 µM.
In the case of CIEVNWTEPDKKVNWFICKKK (modifications not checked) [beta hairpin peptide PHB3], in assay [1], the Antiviral activity in Vero cells, IC50 (plaque reduction, DENV2) is 17 µM.
The same measure, in the same setting: then CVNVTINGKKYNWCKKK (modifications not checked) [beta hairpin peptide PHB7], with 79 µM.
Consider CIEVYWTRPKWKVNWFICKKK (modifications not checked) [beta hairpin peptide PHB4], for which, in assay [1], the Antiviral activity IC50 vs DENV1 (plaque reduction, Vero cells) was found to be 0.002 µM; the Antiviral activity IC50 vs DENV2 (plaque reduction, Vero cells) was 0.003 µM; the Antiviral activity IC50 vs DENV3 (plaque reduction, Vero cells) turned out to be 0.005 µM; the Antiviral activity IC50 vs DENV4 (plaque reduction, Vero cells) was 0.01 µM. Further, the Antiviral activity in Vero cells, IC50 (plaque reduction, DENV2) in assay [1] worked out at 0.003 µM. The molecule further registered an RU (at 270 s) in assay [2] of 3600 RU.
As to CVNWTEPDKKVNWCKKK (modifications not checked) [beta hairpin peptide PHB1], the Antiviral activity in Vero cells, IC50 (plaque reduction, DENV2) in assay [1] worked out at 75 µM. Moreover, in assay [2], the RU (at 270 s) stood at 117 RU.
